Each block holds one binder with its values, some of them ahead of it. Starred links: 1 amine or outer side, 2 acyl side, 3 side chain; linkers in the order of their positions; H or OH if unused. Non-standard residues stand in square brackets, D forms with d. Primed or numbered codes have the meaning given here. *: point of attachment. AC4Abu = α-carboxy-4-aminobutyric acid, O=C(C(CCN[*:1])C(=O)[*:3])[*:2]; Oic = O=C(O)[C@@H]1C[C@@H]2CCCC[C@@H]2N1; Phe(4-Cl) = N[C@@H](Cc1ccc(Cl)cc1)C(=O)O; γGlu = O=C(O)[C@H](CCC(=O)[*:2])N[*:1]; 2Nal = N[C@@H](Cc1ccc2ccccc2c1)C(=O)O; NMeR = CN[C@@H](CCCNC(=N)N)C(=O)O; Tridecanoyl = CCCCCCCCCCCCC(=O)*; hArg = N=C(N)NCCCC[C@H](N)C(=O)O; Cha = N[C@@H](CC1CCCCC1)C(=O)O; αMeL = CC(C)C[C@](C)(N)C(=O)O; αMeP = C[C@@]1(C(=O)O)CCCN1; β3hP = O=C(O)C[C@@H]1CCCN1; Nle = CCCC[C@H](N)C(=O)O; Pip′ = not defined here; AEEA = NCCOCCOCC(=O)O; Aib = CC(C)(N)C(=O)O; BLeu = β-leucine
Experiments:
rat APJ receptor = biological target: T1, rat APJ receptor (rat, UniProt Q9JHG3 1-377); assay: cell-based or functional assay
T1 sequence (looked up): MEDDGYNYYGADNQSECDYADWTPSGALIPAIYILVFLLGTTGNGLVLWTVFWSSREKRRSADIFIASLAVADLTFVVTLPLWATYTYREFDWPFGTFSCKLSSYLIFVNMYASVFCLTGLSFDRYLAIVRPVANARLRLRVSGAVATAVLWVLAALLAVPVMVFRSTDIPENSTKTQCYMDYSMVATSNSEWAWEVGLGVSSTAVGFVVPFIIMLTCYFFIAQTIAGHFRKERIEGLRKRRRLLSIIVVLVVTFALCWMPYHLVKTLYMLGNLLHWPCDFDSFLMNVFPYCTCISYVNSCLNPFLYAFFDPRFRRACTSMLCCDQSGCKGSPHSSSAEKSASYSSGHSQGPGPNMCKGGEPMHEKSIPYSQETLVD

human APJ receptor = biological target: T2, human APJ receptor (human, UniProt P35414 1-380); assay: cell-based or functional assay
T2 sequence (looked up): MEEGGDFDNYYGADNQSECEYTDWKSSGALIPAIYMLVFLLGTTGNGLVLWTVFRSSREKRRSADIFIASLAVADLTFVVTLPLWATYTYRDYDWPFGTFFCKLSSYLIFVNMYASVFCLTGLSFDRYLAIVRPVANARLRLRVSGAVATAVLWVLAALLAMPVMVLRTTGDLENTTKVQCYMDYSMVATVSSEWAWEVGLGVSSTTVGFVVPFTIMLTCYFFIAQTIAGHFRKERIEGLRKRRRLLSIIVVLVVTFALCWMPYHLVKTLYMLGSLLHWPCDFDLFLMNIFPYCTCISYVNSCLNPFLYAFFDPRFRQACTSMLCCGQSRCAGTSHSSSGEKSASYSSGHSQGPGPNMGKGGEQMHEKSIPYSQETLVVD

EC50 Rat APJ Receptor (GTPγS assay) (rat APJ receptor): 6.77 nM | EC50 Human APJ Receptor (GTPγS assay) (human APJ receptor): 523 pM
B4: Apelin polypeptide SEQ ID NO: 522 (peptide)
peptide: Tridecanoyl-[γGlu][AEEA][AEEA][dQ]R[β3hP][hArg][BLeu]SHKG[Oic][Nle][Aib][Phe(4-Cl)]-OH

EC50 Rat APJ Receptor (GTPγS assay) (rat APJ receptor): 2.02 nM | EC50 Human APJ Receptor (GTPγS assay) (human APJ receptor): 557 pM
B5: Apelin polypeptide SEQ ID NO: 516 (peptide)
peptide: Tridecanoyl-[γGlu][AEEA][AEEA][dQ]R[β3hP][NMeR][Cha]SHKG[Oic][Nle][Aib][Phe(4-Cl)]-OH
SMILES: CCCCCCCCCCCCC(=O)N[C@@H](CCC(=O)NCCOCCOCC(=O)NCCOCCOCC(=O)N[C@H](CCC(N)=O)C(=O)N[C@@H](CCCNC(=N)N)C(=O)N1CCC[C@H]1CC(=O)N(C)[C@@H](CCCNC(=N)N)C(=O)N[C@@H](CC1CCCCC1)C(=O)N[C@@H](CO)C(=O)N[C@@H](Cc1c[nH]cn1)C(=O)N[C@@H](CCCCN)C(=O)NCC(=O)N1[C@H](C(=O)N[C@@H](CCCC)C(=O)NC(C)(C)C(=O)N[C@@H](Cc2ccc(Cl)cc2)C(=O)O)C[C@@H]2CCCC[C@@H]21)C(=O)O

EC50 Rat APJ Receptor (GTPγS assay) (rat APJ receptor): 3.22 nM | EC50 Human APJ Receptor (GTPγS assay) (human APJ receptor): 620 pM
B8: Apelin polypeptide SEQ ID NO: 517 (peptide)
peptide: Tridecanoyl-[γGlu][AEEA][AEEA][dQ]R[Pip′][NMeR][Cha]SHKG[Oic][Nle][Aib][Phe(4-Cl)]-OH

The remaining lines, values behind:

B1: Apelin polypeptide SEQ ID NO: 505 (peptide)
peptide: Tridecanoyl-[γGlu][AEEA][AEEA][dQ]R[αMeP][hArg][BLeu]SHKG[Oic][Nle][Aib][Phe(4-Cl)]-OH
EC50 Rat APJ Receptor (GTPγS assay) (rat APJ receptor): 0.516 nM | EC50 Human APJ Receptor (GTPγS assay) (human APJ receptor): 70.8 pM

B2: Apelin polypeptide SEQ ID NO: 446 (peptide)
peptide: Tridecanoyl-[γGlu][AEEA][AEEA]QR[NMeR][Cha]SHKG[Oic][Nle]P[Phe(4-Cl)]-OH
SMILES: CCCCCCCCCCCCC(=O)N[C@@H](CCC(=O)NCCOCCOCC(=O)NCCOCCOCC(=O)N[C@@H](CCC(N)=O)C(=O)N[C@@H](CCCNC(=N)N)C(=O)N(C)[C@@H](CCCNC(=N)N)C(=O)N[C@@H](CC1CCCCC1)C(=O)N[C@@H](CO)C(=O)N[C@@H](Cc1c[nH]cn1)C(=O)N[C@@H](CCCCN)C(=O)NCC(=O)N1[C@H](C(=O)N[C@@H](CCCC)C(=O)N2CCC[C@H]2C(=O)N[C@@H](Cc2ccc(Cl)cc2)C(=O)O)C[C@@H]2CCCC[C@@H]21)C(=O)O
EC50 Rat APJ Receptor (GTPγS assay) (rat APJ receptor): 1.9 nM | EC50 Human APJ Receptor (GTPγS assay) (human APJ receptor): 1110 pM

B3: Apelin polypeptide SEQ ID NO: 404 (peptide)
peptide: Tridecanoyl-[AC4Abu][AEEA][AEEA]QRP[hArg][αMeL]SHKGP[Nle]P[2Nal]-OH
SMILES: CCCCCCCCCCCCC(=O)NCCC(C(=O)O)C(=O)NCCOCCOCC(=O)NCCOCCOCC(=O)N[C@@H](CCC(N)=O)C(=O)N[C@@H](CCCNC(=N)N)C(=O)N1CCC[C@H]1C(=O)N[C@@H](CCCCNC(=N)N)C(=O)N[C@@](C)(CC(C)C)C(=O)N[C@@H](CO)C(=O)N[C@@H](Cc1c[nH]cn1)C(=O)N[C@@H](CCCCN)C(=O)NCC(=O)N1CCC[C@H]1C(=O)N[C@@H](CCCC)C(=O)N1CCC[C@H]1C(=O)N[C@@H](Cc1ccc2ccccc2c1)C(=O)O
EC50 Rat APJ Receptor (GTPγS assay) (rat APJ receptor): 0.361 nM | EC50 Human APJ Receptor (GTPγS assay) (human APJ receptor): 298 pM

B6: Apelin polypeptide SEQ ID NO: 396 (peptide)
peptide: Tridecanoyl-[AC4Abu][AEEA][AEEA]QR[NMeR][αMeL]SHKG[Oic][Nle]P[Phe(4-Cl)]-OH
SMILES: CCCCCCCCCCCCC(=O)NCCC(C(=O)O)C(=O)NCCOCCOCC(=O)NCCOCCOCC(=O)N[C@@H](CCC(N)=O)C(=O)N[C@@H](CCCNC(=N)N)C(=O)N(C)[C@@H](CCCNC(=N)N)C(=O)N[C@@](C)(CC(C)C)C(=O)N[C@@H](CO)C(=O)N[C@@H](Cc1c[nH]cn1)C(=O)N[C@@H](CCCCN)C(=O)NCC(=O)N1[C@H](C(=O)N[C@@H](CCCC)C(=O)N2CCC[C@H]2C(=O)N[C@@H](Cc2ccc(Cl)cc2)C(=O)O)C[C@@H]2CCCC[C@@H]21
EC50 Rat APJ Receptor (GTPγS assay) (rat APJ receptor): 1.14 nM | EC50 Human APJ Receptor (GTPγS assay) (human APJ receptor): 976 pM

B7: Apelin polypeptide SEQ ID NO: 440 (peptide)
peptide: Tridecanoyl-[γGlu][AEEA][AEEA]QR[Pip′][NMeR][Cha]SHKG[Oic][Nle]P[Phe(4-Cl)]-OH
EC50 Rat APJ Receptor (GTPγS assay) (rat APJ receptor): 4.26 nM | EC50 Human APJ Receptor (GTPγS assay) (human APJ receptor): 3480 pM

B9: Apelin polypeptide SEQ ID NO: 503 (peptide)
peptide: XXXQRPRLSHKGXXPF
modifications: {TDA}[AC4Abu][Aeea][Aeea]qR[aMePro][hArg][BLeu]SHKG[Pip][Nle][aMePro][4-Cl-F]{COOH}
EC50 Rat APJ Receptor (GTPγS assay) (rat APJ receptor): 2.12 nM | EC50 Human APJ Receptor (GTPγS assay) (human APJ receptor): 160 pM

B10: Apelin polypeptide SEQ ID NO: 447 (peptide)
peptide: Tridecanoyl-[γGlu][AEEA][AEEA]QR[NMeR][BLeu]SHKG[Oic][Nle]P[Phe(4-Cl)]-OH
EC50 Rat APJ Receptor (GTPγS assay) (rat APJ receptor): 14.8 nM | EC50 Human APJ Receptor (GTPγS assay) (human APJ receptor): 9660 pM

— patent publication US10941182 (Amgen, dated 2021)
